The record followed here is paper PMC4204775 (Human Molecular Genetics, 2014).

For data set [1], the target named is T1, AGT-Ma (S81L-Ma homodimer) (Homo sapiens, UniProt P21549, S81L).
T1 sequence (P21549 1-392 S81L): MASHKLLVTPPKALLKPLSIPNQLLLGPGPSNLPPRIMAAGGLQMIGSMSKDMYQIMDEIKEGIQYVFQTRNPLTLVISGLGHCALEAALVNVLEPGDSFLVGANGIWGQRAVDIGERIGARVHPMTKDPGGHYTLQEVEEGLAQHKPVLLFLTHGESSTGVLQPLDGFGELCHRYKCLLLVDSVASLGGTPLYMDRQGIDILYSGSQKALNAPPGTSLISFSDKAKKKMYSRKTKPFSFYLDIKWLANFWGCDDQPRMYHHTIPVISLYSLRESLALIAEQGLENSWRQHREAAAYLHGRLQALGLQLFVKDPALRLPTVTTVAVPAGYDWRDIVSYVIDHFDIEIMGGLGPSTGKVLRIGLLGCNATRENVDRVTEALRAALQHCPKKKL
Put plainly: CD signal change at […] nm on PLP titration of apoenzyme. The class given is binding.

Substrate in data set [2]: C[C@H](N)C(=O)O
Put plainly: pyruvate formation, lactate dehydrogenase-coupled spectrophotometric assay. The class given is biochemical, Homo sapiens. The settings on record: saturating glyoxylate, 200 μM PLP, 100 mM potassium phosphate, 25°C.

Substrate in data set [3]: O=CC(=O)O
Described as above. It counts as biochemical, Homo sapiens. The note with it: saturating L-alanine, 200 μM PLP, 100 mM potassium phosphate, 25°C.

In turn, `Cc1ncc(COP(=O)(O)O)c(C=O)c1O` [PLP] returned a Kd in data set [1] of 17 ± 3 µM.

B1: AGT-Ma (S81L-Ma homodimer) (Homo sapiens; S81L) (protein)
chain: T1 sequence (P21549 1-392 S81L)
As for B1, the kcat in data set [2] and in data set [3] was 13.9 ± 0.9 s⁻¹ each time. For the same molecule, the Km in data set [3] is 160 ± 20 µM.
